Measured values published in the supplement of paper PMC9876800.

System: peptide library, one residue held at a place counted from the S/T acceptor
Assay: relative phosphorylation of the sub-library (ratio to the mean residue at this position); higher = residue favoured
Details: human
Method in brief: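 Purified recombinant kinases were reacted in 384-well plates with biotinylated degenerate peptide sub-libraries, each having one residue fixed at one position around a central Ser/Thr. The reaction mix contained 50 μM peptide plus 50 μM ATP spiked with γ-32P-ATP and ran for 90 min under kinase-specific conditions. Relative sub-library phosphorylation, taken from densitometry of phosphorimaged streptavidin membrane spots, is a ratio to the mean residue at that position.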

Chain of PRKX, construct: Full length (P51817 whole entry, looked up): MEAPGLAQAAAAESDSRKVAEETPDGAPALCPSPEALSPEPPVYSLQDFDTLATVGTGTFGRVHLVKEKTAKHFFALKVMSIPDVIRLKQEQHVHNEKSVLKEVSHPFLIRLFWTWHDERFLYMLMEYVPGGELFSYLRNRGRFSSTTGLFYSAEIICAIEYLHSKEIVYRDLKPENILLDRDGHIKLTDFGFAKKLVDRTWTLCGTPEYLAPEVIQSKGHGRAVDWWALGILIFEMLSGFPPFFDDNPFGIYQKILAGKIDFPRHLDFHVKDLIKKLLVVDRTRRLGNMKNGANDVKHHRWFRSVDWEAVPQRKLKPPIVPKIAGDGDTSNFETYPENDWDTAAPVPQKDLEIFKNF
Chain of WNK3, construct: aa1-434 (Q9BYP7 1-434, looked up): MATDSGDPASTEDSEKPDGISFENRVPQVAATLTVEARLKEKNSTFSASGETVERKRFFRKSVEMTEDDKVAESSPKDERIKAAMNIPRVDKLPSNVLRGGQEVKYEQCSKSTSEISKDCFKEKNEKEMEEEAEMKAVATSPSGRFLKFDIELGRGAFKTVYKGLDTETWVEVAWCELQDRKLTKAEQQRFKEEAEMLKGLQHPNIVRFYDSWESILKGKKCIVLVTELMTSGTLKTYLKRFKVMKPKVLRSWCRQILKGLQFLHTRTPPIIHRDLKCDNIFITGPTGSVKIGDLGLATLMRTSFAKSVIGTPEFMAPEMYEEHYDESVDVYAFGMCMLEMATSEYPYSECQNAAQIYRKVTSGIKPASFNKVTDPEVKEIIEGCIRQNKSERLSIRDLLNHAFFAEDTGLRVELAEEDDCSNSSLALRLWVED

PRKX, construct: Full length (from UniProt P51817)
relative phosphorylation
Details	at +1	at +2	at +3	at +4	at -1	at -2	at -3	at -4	at -5
A fixed	0.71	1.3	0.688	0.785	0.651	0.289	0.299	1.03	1.08
D fixed	0.862	2.53	1.6	2.09	0.698	0.224	0.2	0.876	1.11
E fixed	0.814	1.04	1.32	1.61	0.424	0.2	0.208	0.881	0.985
F fixed	0.849	0.505	0.697	0.599	0.425	0.212	0.128	0.515	0.596
G fixed	1.06	1.27	1.49	1.08	1.29	0.382	0.477	1.1	1.4
H fixed	0.919	1.16	1.31	1.04	1.18	0.662	1.14	1.09	1.26
I fixed	0.872	0.411	0.344	0.522	0.184	0.143	0.111	0.357	0.528
K fixed	1.55	0.713	1.38	1.12	2.79	4.76	3.29	2.53	2.14
L fixed	0.859	0.47	0.627	0.572	0.399	0.185	0.112	0.451	0.507
M fixed	0.884	0.504	0.462	0.643	0.534	0.176	0.134	0.575	0.651
N fixed	1.41	1.47	1.52	1.48	1.7	0.343	0.383	0.914	1.11
P fixed	0.584	1.84	1.24	1.3	1.55	0.395	0.797	1.22	0.811
Q fixed	1.47	1.24	1.36	1.23	1.41	0.483	0.444	1.18	0.807
R fixed	1.57	0.881	1.13	1.06	2.37	7.88	8.71	2.58	2.12
V fixed	0.801	0.498	0.413	0.623	0.217	0.143	0.112	0.412	0.454
W fixed	1.02	0.624	0.752	0.637	0.457	0.295	0.246	0.686	0.731
Y fixed	0.766	0.548	0.669	0.608	0.711	0.234	0.204	0.613	0.71
pThr fixed	1.32	1.05	1.35	2.62	0.462	0.431	0.421	0.921	1.04
pTyr fixed	1.54	1.38	1.3	1.55	0.999	0.374	0.345	0.864	0.882

WNK3, construct: aa1-434 (from UniProt Q9BYP7)
relative phosphorylation
Details	at +1	at +2	at +3	at +4	at -1	at -2	at -3	at -4	at -5
A fixed	0.622	0.792	0.655	0.69	0.647	1.05	0.84	0.962	0.856
D fixed	0.416	0.7	0.675	0.609	0.462	0.409	0.519	0.598	0.749
E fixed	0.359	0.496	0.64	0.647	0.6	0.361	0.552	0.766	0.91
F fixed	1.36	1.09	1.43	1.25	0.983	0.865	0.748	0.843	1.14
G fixed	0.784	0.939	0.674	0.771	0.605	1.41	0.728	0.853	0.972
H fixed	1.02	0.981	1.31	1.01	1.11	1.56	1.44	1.3	1.24
I fixed	1.19	1.59	1.09	1.38	0.924	0.746	0.95	0.836	0.879
K fixed	0.825	0.772	1	1	1.51	1.19	1.7	1.37	1.39
L fixed	1.61	1.5	1.32	1.29	1.26	0.8	0.862	0.858	0.753
M fixed	1.84	1.54	1.29	1.41	1.49	0.852	1.16	0.894	0.861
N fixed	0.937	0.654	0.747	0.682	0.799	0.815	0.795	0.973	0.968
P fixed	0.278	0.356	0.441	0.626	0.428	1.24	0.794	0.8	0.702
Q fixed	1.16	0.608	0.648	0.677	1.22	0.768	1.11	0.901	0.986
R fixed	1.16	1.64	0.994	0.959	1.53	1.85	1.87	1.77	1.69
V fixed	1.03	1.28	0.994	1.35	1.09	1.07	0.871	0.957	0.818
W fixed	1.06	0.946	1.59	1.4	1.15	1.01	1.01	1.14	0.974
Y fixed	1.33	1.12	1.51	1.24	1.2	0.997	1.06	1.19	1.12
pThr fixed	0.485	0.521	0.513	0.543	0.566	0.779	0.812	0.96	0.798
pTyr fixed	0.566	0.549	0.663	0.56	0.893	0.555	0.741	0.842	0.859
